Assay results taken from the supplement of paper PMC9233669.
This sample holds only a part of the variants without activity.

Experiments:
[1] = tested on: biotinyl-Phe-oxazolone; assay: self-aminoacylation, catalytic enhancement (BFO) (fold over background); higher = more active; k-Seq, kA / k0A0; sequences stand for … in GGGAAUGGAUCCACAUCUACGAAUUC…UUCACUGCAGACUUGACGAAGCUG
Outline: (§1)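 Mutagenized RNA pools (0.43 μM; 21-nt variable region) were treated with 2–1250 μM of each biotinyl-aminoacyl-oxazolone. Conditions were 50 μL HEPES/NaCl/KCl/MgCl2/CaCl2 buffer, 5% acetonitrile, pH 6.9–7.0, room temperature, 90 minutes. Catalytic enhancement, the median kA relative to the uncatalyzed rate, was derived from streptavidin capture, qPCR and Illumina sequencing.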

[2] = tested on: biotinyl-Ile-oxazolone; assay: self-aminoacylation, catalytic enhancement (BIO) (fold over background); higher = more active; k-Seq, kA / k0A0; sequences stand for … in GGGAAUGGAUCCACAUCUACGAAUUC…UUCACUGCAGACUUGACGAAGCUG
Outline: as §1

[3] = tested on: biotinyl-Met-oxazolone; assay: self-aminoacylation, catalytic enhancement (BMO) (fold over background); higher = more active; k-Seq, kA / k0A0; sequences stand for … in GGGAAUGGAUCCACAUCUACGAAUUC…UUCACUGCAGACUUGACGAAGCUG
Outline: as §1

[4] = tested on: biotinyl-Val-oxazolone; assay: self-aminoacylation, catalytic enhancement (BVO) (fold over background); higher = more active; k-Seq, kA / k0A0; sequences stand for … in GGGAAUGGAUCCACAUCUACGAAUUC…UUCACUGCAGACUUGACGAAGCUG
Outline: as §1

[5] = tested on: biotinyl-Leu-oxazolone; assay: self-aminoacylation, catalytic enhancement (BLO) (fold over background); higher = more active; k-Seq, kA / k0A0; sequences stand for … in GGGAAUGGAUCCACAUCUACGAAUUC…UUCACUGCAGACUUGACGAAGCUG
Outline: as §1

[6] = tested on: biotinyl-Trp-oxazolone; assay: self-aminoacylation, catalytic enhancement (BWO) (fold over background); higher = more active; k-Seq, kA / k0A0; sequences stand for … in GGGAAUGGAUCCACAUCUACGAAUUC…UUCACUGCAGACUUGACGAAGCUG
Outline: as §1

Sequence	self-aminoacylation [1]	self-aminoacylation [2]	self-aminoacylation [3]	self-aminoacylation [4]	self-aminoacylation [5]	self-aminoacylation [6]
AUUACACUGGUCAUCGAGUGU [Fam2.1 aminoacylation ribozyme variant]	2.05	1.73	2.61	1.66	2.47	3.07
AUUACACUGGUCAUCUAGUGA [Fam2.1 aminoacylation ribozyme variant]	35	3.07	5.64	2.65	6.24	6.76
AUUACACUGGUCGUCGAGUGA [Fam2.1 aminoacylation ribozyme variant]	2.53	1.25	1.14	1.38	1.44	0.958
AUUACACUGGUUAUCGAGUGA [Fam2.1 aminoacylation ribozyme variant]	45.5	4.23	7.64	3.72	8.73	10.3
AUUACAUUGGUCAUCGAGUGA [Fam2.1 aminoacylation ribozyme variant]	22.8	3.03	5.35	2.95	5.8	6.85
AUUACCAUGGUCAUCAAGUGA [Fam2.1 aminoacylation ribozyme variant]	5.16	2.22	3.69	2.4	4.04	5.09
AUUACCAUGGUCAUCGAGUCA [Fam2.1 aminoacylation ribozyme variant]	0.683	0.821	0.695	0.778	0.823	0.451
AUUACCAUGGUCAUCGGGUGA [Fam2.1 aminoacylation ribozyme variant]	96	6.52	14.7	7.28	13.6	16.2
AUUACCAUGGUCAUCGUGUGA [Fam2.1 aminoacylation ribozyme variant]	27.8	1.9	4.58	2.2	4.26	5.96
AUUACCAUGGUCAUCUAGUGA [Fam2.1 aminoacylation ribozyme variant]	59.9	5.41	11.1	5.38	11.1	15.6
AUUACCAUGGUCAUGGAGUGA [Fam2.1 aminoacylation ribozyme variant]	24.3	3.74	5.25	3.34	5.78	7.35
AUUACCAUGGUUAUCGAGUGA [Fam2.1 aminoacylation ribozyme variant]	69.6	4.38	9.62	4.79	10.6	12.2
AUUACCCAGCUCAUCGAGUGA [Fam2.1 aminoacylation ribozyme variant]	1.01	1.47	1.54	1.56	1.52	1.32
AUUACCCAGGUCACCGAGUGA [Fam2.1 aminoacylation ribozyme variant]	66.2	4.17	8.63	4.49	10.2	10.3
AUUACCCAGGUCAUCGAGUGG [Fam2.1 aminoacylation ribozyme variant]	0.937	1.14	1.07	1.22	1.3	0.735
AUUACCCAGGUCAUCGCGUGA [Fam2.1 aminoacylation ribozyme variant]	156	8.22	20.3	10.3	22.9	19.3
AUUACCCAGGUCAUCGGGUGA [Fam2.1 aminoacylation ribozyme variant]	75.2	5.86	11.5	7.25	12.6	11
AUUACCCAGUUCAUCGAGUGA [Fam2.1 aminoacylation ribozyme variant]	16.8	2.14	3.69	2.62	3.09	4.78
AUUACCCAUGUCAUCGAGUGA [Fam2.1 aminoacylation ribozyme variant]	34.3	4.15	7.7	4.43	8.07	9.9
AUUACCCCCGUCAUCGAGUGA [Fam2.1 aminoacylation ribozyme variant]	18.4	2.84	4.43	3.12	4.7	4.67
AUUACCCCGGUCAUAGAGUGA [Fam2.1 aminoacylation ribozyme variant]	43.1	4.47	7.91	3.96	8.34	8.65
AUUACCCCGGUCAUCCAGUGA [Fam2.1 aminoacylation ribozyme variant]	31.4	3.52	4.93	3.06	5.88	5.63
AUUACCCCGGUCAUCGAGUGG [Fam2.1 aminoacylation ribozyme variant]	4.86	0.919	1.25	1.13	2.42	0.999
